Results as given in patent publication US20230391872A1 (ANAPTYSBIO, published 2023).

Tests used:
[1] = target: T1, cynomolgus monkey BTLA on cells (stably transfected 293c18 clone 1G5); cynomolgus peripheral blood T and B … (cynomolgus monkey, UniProt A0A2K5W7M7 31-289); assay: flow cytometry (MFI) on 293c18 cells stably expressing cynomolgus monkey BTLA, goat anti-human kappa-PE detection, four-parameter fit [right panel (Cy BTLA 293c18 cells), EC50 box]
T1 construct: whole, on cells; also called cynomolgus monkey BTLA 293c18 cells
T1 sequence: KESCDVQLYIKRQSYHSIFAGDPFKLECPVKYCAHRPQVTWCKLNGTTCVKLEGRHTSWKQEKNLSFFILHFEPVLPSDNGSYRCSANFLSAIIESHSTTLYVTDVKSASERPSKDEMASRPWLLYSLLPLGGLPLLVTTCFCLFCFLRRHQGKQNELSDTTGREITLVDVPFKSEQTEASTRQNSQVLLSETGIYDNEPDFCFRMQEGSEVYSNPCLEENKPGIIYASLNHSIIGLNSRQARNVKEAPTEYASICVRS
Protocol: 293c18 cell clone 1E4 stably expressing human BTLA construct or clone 1G5 stably expressing cynomolgus monkey BTLA were harvested with Accutase solution (Millipore Sigma/Sigma-Aldrich) and washed once with Phosphate-Buffered Saline, 1% BSA. 293c18 cynomolgus monkey BTLA cells were loaded with the lipophilic carbocyanine dye, DiD (2 μM, 1,1′-dioctadecyl-3,3,3′,3′-tetramenthylindodicarbocyanine; ThermoFisher Scientific) by rocking gently for 10 minutes at room temperature. DiD-stained cells were washed in PBS, 1% BSA and equal amounts of human BTLA 293c18 cells and cynomolgus monkey BTLA 293c18-DiD-stained cells were mixed. Cells (2×10⁵ total cells/sample) were incubated with the indicated concentrations of purified 6G3 IgG4 (two production lots, APE10840.03 and APE10840.04 (H Chain SEQ ID NO: 144, L Chain SEQ ID NO: 174)) or human IgG4 isotype control antibody specific for hen egg lysozyme with gentle shaking for 10 minutes at 4° C. in FACS buffer (PBS, 1% BSA, 0.02% sodium azide). […] Cells were washed and resuspended in FACS buffer and analyzed for fluorescence on a BD FACSArray (BD Biosciences). DiD stained cells expressing cynomolgus monkey BTLA (FIG. 3) were analyzed for median fluorescence intensity (MFI) separately from cells expressing human BTLA (FIG. 3). […]

[2] = target: T2, human BTLA on cells (stably transfected 293c18 cells; human peripheral blood T and B cells) (human, UniProt Q7Z6A9 31-289); assay: flow cytometry, DyLight 650-labeled 6G3 IgG4 on human peripheral blood CD4+ T cells
T2 construct: whole, on cells; the cells are named under assay; also called cell surface BTLA; full-length human BTLA
Protocol: PBMCs were washed and incubated at 2×10⁷ cells/ml in FACS buffer (PBS, 1% BSA, 0.02% sodium azide) with Human BD Fc Block (2.5 μg/1×10⁶ cells, BD Biosciences) and LIVE/DEAD® Fixable Yellow Dead Cell Stain (30 μl, ThermoFisher Scientific) for 10 minutes on ice. Cells were washed once in FACS buffer, resuspended in FACS buffer at 1×10⁷ cells/ml and the following phenotyping antibodies added: Alexa Fluor 488-anti-human CD3E clone SK7, Brilliant Violet 421-anti-human CD4 clone OKT4, Brilliant Violet 785-anti-human CD8 clone SK1, and Brilliant Violet 570-anti-human CD20 clone 2H7 (50 μl each; all from BioLegend, Inc.). […] Samples were washed twice in FACS buffer, resuspended in 150 μl/well FACS buffer, and analyzed for fluorescence on a NovoCyte Flow Cytometer (ACEA Biosciences, Inc.). Data were analyzed using NovoExpress Software (ACEA Biosciences, Inc.). Median fluorescence intensities of anti-BTLA or isotype staining on gated CD4⁺ T cells (FIG. 4), CD8⁺ T cells (FIG. 4), or CD20⁺ B cells (FIG. 4) were graphed and curves fit with log(agonist) vs. response (three parameters) least squares fit for EC₅₀ calculation in GraphPad Prism (GraphPad Software, Inc.).

- EC50 [1]: 2.3 nM
- EC50 [2]: ~2.4 nM
B1: 6G3 IgG4 anti-BTLA antibody (APE10840 / APE12839 / APE13308) (antibody, V domains shown)
VH: QVQLVQSGAEVKKPGSSVKVSCKASGYVFSTSWMNWVRQAPGQGLEWMGRIYPGDADTNYVGKFKGRVTITADKSTTTAYMELSSLRSEDTAVYFCAKSGTFNFGNYRWYFDVWGKGTTVTVSS
VL: AIQLTQSPSSLSASVGDRVTITCRVSENIYSHLAWYQQKPGKAPKLLIYAATNLALGVPSRFSGSGSGTDYTLTISSLQPEDFATYYCQLFWGPPLTFGGGTKVEIKR
notes: Humanized antibody from a mouse hybridoma, tested as human IgG4 (detected with anti-human kappa); Some assays used labelled lots (DyLight 650, AF647, biotin, DyL488); also called 6G3 antibody; APE10840.03
